Results taken from the supplement of paper PMC9112550, “Optimization of the antimicrobial peptide Bac7 by deep mutational scanning” (BMC Biology, 2022).

System: Escherichia coli TOP10
Test: shrunken log2 fold change of peptide-encoding DNA abundance (4.5 h post-induction vs induction); higher = less antimicrobial activity (less host growth inhibition)
Settings: time post-induction: 4.5 h; library: site-saturation at positions 5, 18, 19, 20
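Also: peptides expressed intracellularly from a pBAD plasmid library in pooled LB shake-flask culture, induced with 0.3% L-arabinose, DNA abundance read by NGS, three biological replicates, DESeq2 with apeglm shrinkage.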

RRIRLRPPRLPRPRPRPDQTPRP
shrunken log2 fold change: 0.0206

RRIRLRPPRLPRPRPRPDREPRP
shrunken log2 fold change: 0.0246

RRIRLRPPRLPRPRPRPDRKPRP
shrunken log2 fold change: -0.0365

RRIRLRPPRLPRPRPRPDRWPRP
shrunken log2 fold change: -0.0824

RRIRLRPPRLPRPRPRPDSEPRP
shrunken log2 fold change: 0.482

RRIRLRPPRLPRPRPRPDTKPRP
shrunken log2 fold change: -0.122

RRIRLRPPRLPRPRPRPDVQPRP
shrunken log2 fold change: 0.0463

RRIRLRPPRLPRPRPRPDWGPRP
shrunken log2 fold change: 0.222

RRIRLRPPRLPRPRPRPDWLPRP
shrunken log2 fold change: 0.318

RRIRLRPPRLPRPRPRPDYKPRP
shrunken log2 fold change: -0.354

RRIRLRPPRLPRPRPRPDYTPRP
shrunken log2 fold change: -0.295

RRIRLRPPRLPRPRPRPEAKPRP
shrunken log2 fold change: 0.0204

RRIRLRPPRLPRPRPRPEAVPRP
shrunken log2 fold change: -0.0408

RRIRLRPPRLPRPRPRPECLPRP
shrunken log2 fold change: -0.00237

RRIRLRPPRLPRPRPRPEDRPRP
shrunken log2 fold change: -0.0181

RRIRLRPPRLPRPRPRPEIIPRP
shrunken log2 fold change: 0.179

RRIRLRPPRLPRPRPRPEKDPRP
shrunken log2 fold change: 0.191

RRIRLRPPRLPRPRPRPEKEPRP
shrunken log2 fold change: 0.263

RRIRLRPPRLPRPRPRPEKRPRP
shrunken log2 fold change: -0.148

RRIRLRPPRLPRPRPRPEKYPRP
shrunken log2 fold change: -0.397

RRIRLRPPRLPRPRPRPEMHPRP
shrunken log2 fold change: -0.132

RRIRLRPPRLPRPRPRPEPFPRP
shrunken log2 fold change: -0.0343

RRIRLRPPRLPRPRPRPEPQPRP
shrunken log2 fold change: 0.728

RRIRLRPPRLPRPRPRPEQVPRP
shrunken log2 fold change: -0.117

RRIRLRPPRLPRPRPRPERDPRP
shrunken log2 fold change: -0.189

RRIRLRPPRLPRPRPRPERVPRP
shrunken log2 fold change: 0.0357

RRIRLRPPRLPRPRPRPETIPRP
shrunken log2 fold change: 0.0243

RRIRLRPPRLPRPRPRPEVAPRP
shrunken log2 fold change: 0.475

RRIRLRPPRLPRPRPRPEVCPRP
shrunken log2 fold change: -0.0515

RRIRLRPPRLPRPRPRPEVLPRP
shrunken log2 fold change: -0.0871

RRIRLRPPRLPRPRPRPEYDPRP
shrunken log2 fold change: 0.0855

RRIRLRPPRLPRPRPRPFEDPRP
shrunken log2 fold change: -0.193

RRIRLRPPRLPRPRPRPFELPRP
shrunken log2 fold change: -0.519

RRIRLRPPRLPRPRPRPFIHPRP
shrunken log2 fold change: -0.807

RRIRLRPPRLPRPRPRPFIMPRP
shrunken log2 fold change: -0.79

RRIRLRPPRLPRPRPRPFKDPRP
shrunken log2 fold change: -0.023

RRIRLRPPRLPRPRPRPFKEPRP
shrunken log2 fold change: -0.169

RRIRLRPPRLPRPRPRPFLDPRP
shrunken log2 fold change: -0.228

RRIRLRPPRLPRPRPRPFLRPRP
shrunken log2 fold change: -0.429

RRIRLRPPRLPRPRPRPFMQPRP
shrunken log2 fold change: 0.0179

RRIRLRPPRLPRPRPRPFNVPRP
shrunken log2 fold change: -0.485

RRIRLRPPRLPRPRPRPFPLPRP
shrunken log2 fold change: -0.0787

RRIRLRPPRLPRPRPRPFPYPRP
shrunken log2 fold change: 0.015

RRIRLRPPRLPRPRPRPFTWPRP
shrunken log2 fold change: -0.369

RRIRLRPPRLPRPRPRPFVQPRP
shrunken log2 fold change: -0.284

RRIRLRPPRLPRPRPRPFYPPRP
shrunken log2 fold change: -0.504

RRIRLRPPRLPRPRPRPGCKPRP
shrunken log2 fold change: -0.0977

RRIRLRPPRLPRPRPRPGCWPRP
shrunken log2 fold change: 0.482

RRIRLRPPRLPRPRPRPGDNPRP
shrunken log2 fold change: 0.0735

RRIRLRPPRLPRPRPRPGEEPRP
shrunken log2 fold change: 0.143

RRIRLRPPRLPRPRPRPGEFPRP
shrunken log2 fold change: 2.05

RRIRLRPPRLPRPRPRPGENPRP
shrunken log2 fold change: -0.00192

RRIRLRPPRLPRPRPRPGEPPRP
shrunken log2 fold change: -0.0262

RRIRLRPPRLPRPRPRPGGKPRP
shrunken log2 fold change: -0.00333

RRIRLRPPRLPRPRPRPGICPRP
shrunken log2 fold change: 0.126

RRIRLRPPRLPRPRPRPGIEPRP
shrunken log2 fold change: -0.00975

RRIRLRPPRLPRPRPRPGKGPRP
shrunken log2 fold change: -0.0192

RRIRLRPPRLPRPRPRPGKPPRP
shrunken log2 fold change: -0.0724

RRIRLRPPRLPRPRPRPGMIPRP
shrunken log2 fold change: -0.419

RRIRLRPPRLPRPRPRPGMKPRP
shrunken log2 fold change: -0.0618

RRIRLRPPRLPRPRPRPGNGPRP
shrunken log2 fold change: 0.0164

RRIRLRPPRLPRPRPRPGQGPRP
shrunken log2 fold change: -0.0179

RRIRLRPPRLPRPRPRPGQLPRP
shrunken log2 fold change: -0.0554

RRIRLRPPRLPRPRPRPGQSPRP
shrunken log2 fold change: 0.0614

RRIRLRPPRLPRPRPRPGSDPRP
shrunken log2 fold change: -0.149

RRIRLRPPRLPRPRPRPGSQPRP
shrunken log2 fold change: 0.0681

RRIRLRPPRLPRPRPRPGSYPRP
shrunken log2 fold change: 0.186

RRIRLRPPRLPRPRPRPGTMPRP
shrunken log2 fold change: -0.0422

RRIRLRPPRLPRPRPRPGVDPRP
shrunken log2 fold change: 0.411

RRIRLRPPRLPRPRPRPGVGPRP
shrunken log2 fold change: 0.537

RRIRLRPPRLPRPRPRPGWCPRP
shrunken log2 fold change: 0.191

RRIRLRPPRLPRPRPRPHAAPRP
shrunken log2 fold change: -0.343

RRIRLRPPRLPRPRPRPHAGPRP
shrunken log2 fold change: 0.168

RRIRLRPPRLPRPRPRPHAYPRP
shrunken log2 fold change: -0.392

RRIRLRPPRLPRPRPRPHEFPRP
shrunken log2 fold change: -0.0833
